Tests used:
[1] = target: T1, LiRad51-3 (in 3-4-6 complex);LiRad51-4 (in 3-4-6 complex);LiRad51-6 (in 3-4-6 complex) (Leishmania infantum;Leishmania …, UniProt E9AHR7;A4HUT5;A4I499 1-687;1-518;1-649, ||); assay: competition EMSA; 0-40 nM complex; preferred substrate in mixture; 25 mM MOPS pH 7.0, 0.2% Tween-20, 1 mM CaCl2, 2 mM DTT; 25 nM 32P-DNA; 37 C 10 min, then 0.2% glutaraldehyde 15 min; 8% TBE acrylamide gel; conditions: protein: recombinant;recombinant;recombinant; copies: 1;1;1; label: 32P on strand 3 (JYM1745); D-loop: 1:2 with unpaired bubble, 3 paired to 2 in the bubble
[2] = target: T1, LiRad51-3 (in 3-4-6 complex);LiRad51-4 …; assay: competition EMSA; 0-40 nM complex; mixture; 25 mM MOPS pH 7.0, 0.2% Tween-20, 1 mM CaCl2, 2 mM DTT; 25 nM 32P-DNA; 37 C 10 min, then 0.2% glutaraldehyde 15 min; 8% TBE acrylamide gel; conditions: protein: recombinant;recombinant;recombinant; copies: 1;1;1; label: 32P on strand 1; fork 1:2

Binder | binding result [1] | binding result [2]
D-loop (JYM1395/JYM1396/JYM1745) (structured_DNA) DNA 1: GCCAGGGACGGGGTGAACCTGCAGGTGGGCGGCTGCTCATCGTAGGTTAGTATCGACCTATTGGTAGAATTCGGCAGCGTCATGCGACGGC DNA 2: GCCGTCGCATGACGCTGCCGAATTCTACCACGCTACTAGGGTGCCTTGCTAGGACATCTTTGCCCACCTGCAGGTTCACCCCGTCCCTGGC DNA 3: AAGATGTCCTAGCAAGGCACCCTAGTAGC | binds | –
splayed arm (JYM925/JYM926) (structured_DNA) DNA 1: GGGTGAACCTGCAGGTGGGCAAAGATGTCCTAGCAATGTAATCGTCAAGCTTTATGCCGT DNA 2: ACGCTGCCGAATTCTACCAGTGCCAGCGACGGACATCTTTGCCCACCTGCAGGTTCACCC | – | binds

From publication PMC4357719, “Roles of Rad51 paralogs for promoting homologous recombination in Leishmania infantum”
